# Assay results reported in paper PMC3806636.
# Biological target: Atg17 (Lachancea thermotolerans), crystallised construct (Lachancea thermotolerans)
# Test: SEC-MALS
substance,measurement,value
"Atg17 (Lachancea thermotolerans), crystallised construct (natural protein)",stoichiometry N,2
